Measured values from article PMC7083938 (2020).

Legend:
[1] = biological target: T1, Robo3 FN1 mouse (Mus musculus (Mouse), UniProt Q9Z2I4); test: SPR equilibrium
T1 chain: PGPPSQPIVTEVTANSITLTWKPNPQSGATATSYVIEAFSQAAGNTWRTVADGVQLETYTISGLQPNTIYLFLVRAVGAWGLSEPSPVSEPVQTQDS

[2] = biological target: T2, Robo1 FN1 mouse (Mus musculus (Mouse), UniProt O89026); test: SPR equilibrium
T2 chain: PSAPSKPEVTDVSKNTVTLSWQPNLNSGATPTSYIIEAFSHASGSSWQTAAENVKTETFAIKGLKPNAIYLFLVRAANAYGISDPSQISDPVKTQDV

B1: NELL2 mouse (protein)
chain: DIDECAEGRHYCRENTMCVNTPGSFMCICKTGYIRIDDYSCTEHDECLTNQHNCDENALCFNTVGGHNCVCKPGYTGNGTTCK
Kd [1]: 0.71 µM
Kd [2]: 13.8 µM
